Results reported in paper PMC9482650, “Quantitative fragmentomics allow affinity mapping of interactomes” (Nature Communications, 2022).
Blank lines part the entries; values can stand above or below the binder they belong to.

What was measured:
Assay in all cases: holdup assay
Parameters in all cases: key: below the threshold = too weak to quantify, mostly under pKd 3.1 to 4
PTPN3, P26045 = target: PTPN3, P26045
RHPN1, Q8TCX5 = target: T1, RHPN1, Q8TCX5
T1 sequence (Q8TCX5 508-602, limits assumed, looked up): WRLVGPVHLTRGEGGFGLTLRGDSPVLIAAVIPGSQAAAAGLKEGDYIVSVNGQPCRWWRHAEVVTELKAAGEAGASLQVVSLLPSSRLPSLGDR

DLG3_2, Q92796 = target: T2, DLG3_2, Q92796
T2 sequence (Q92796 221-321, limits assumed, looked up): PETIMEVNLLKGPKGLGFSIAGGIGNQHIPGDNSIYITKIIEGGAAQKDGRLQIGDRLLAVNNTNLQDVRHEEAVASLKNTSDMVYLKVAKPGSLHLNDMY

NOS1, P29475 = target: NOS1, P29475
NOS1, P29475, sequence (P29475 9-101): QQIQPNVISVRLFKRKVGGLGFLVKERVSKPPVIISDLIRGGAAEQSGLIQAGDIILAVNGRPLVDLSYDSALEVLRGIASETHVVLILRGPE

MPP6, Q9NZW5 = target: T3, MPP6, Q9NZW5
T3 sequence (Q9NZW5 125-219, limits assumed, looked up): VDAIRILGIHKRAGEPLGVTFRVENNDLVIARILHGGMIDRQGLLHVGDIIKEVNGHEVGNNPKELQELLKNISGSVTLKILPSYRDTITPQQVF

GRIP2_7, Q9C0E4 = target: GRIP2_7, Q9C0E4
GRIP2_7, Q9C0E4, sequence (Q9C0E4 934-1023): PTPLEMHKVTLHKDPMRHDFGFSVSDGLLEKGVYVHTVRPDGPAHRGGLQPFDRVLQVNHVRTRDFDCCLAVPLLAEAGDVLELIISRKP

TJP2_1, Q9UDY2 = target: TJP2_1, Q9UDY2
TJP2_1, Q9UDY2, sequence (Q9UDY2 24-128): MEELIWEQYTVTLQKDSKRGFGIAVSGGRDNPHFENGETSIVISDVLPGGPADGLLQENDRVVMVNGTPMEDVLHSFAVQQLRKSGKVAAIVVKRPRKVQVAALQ

SCRIB_3, Q14160 = target: SCRIB_3, Q14160
SCRIB_3, Q14160, sequence (Q14160 999-1103): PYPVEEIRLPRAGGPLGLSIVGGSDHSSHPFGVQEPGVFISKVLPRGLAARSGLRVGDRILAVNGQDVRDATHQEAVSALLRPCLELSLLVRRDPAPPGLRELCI

SNTG2, Q9NY99 = target: T4, SNTG2, Q9NY99
T4 sequence (Q9NY99 68-166, limits assumed, looked up): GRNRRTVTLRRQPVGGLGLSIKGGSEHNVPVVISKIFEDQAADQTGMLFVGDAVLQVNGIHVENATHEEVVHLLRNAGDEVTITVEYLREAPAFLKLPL

MPP7, Q5T2T1 = target: T5, MPP7, Q5T2T1
T5 sequence (Q5T2T1 134-230, limits assumed, looked up): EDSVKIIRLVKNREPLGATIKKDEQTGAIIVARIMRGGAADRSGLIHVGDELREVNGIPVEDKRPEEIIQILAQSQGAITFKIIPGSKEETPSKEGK

GRIP2_5, Q9C0E4 = target: GRIP2_5, Q9C0E4
GRIP2_5, Q9C0E4, sequence (Q9C0E4 544-642): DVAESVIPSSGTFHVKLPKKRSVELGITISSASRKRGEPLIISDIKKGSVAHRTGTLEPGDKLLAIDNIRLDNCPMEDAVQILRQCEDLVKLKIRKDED

CARD11, Q9BXL7 = target: T6, CARD11, Q9BXL7
T6 sequence (Q9BXL7 662-765, limits assumed, looked up): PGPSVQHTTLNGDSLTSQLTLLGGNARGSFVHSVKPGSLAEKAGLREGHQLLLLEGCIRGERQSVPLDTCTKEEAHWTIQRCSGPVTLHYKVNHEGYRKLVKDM

Inadl_4, Q8NI35 = target: Inadl_4, Q8NI35
Inadl_4, Q8NI35, sequence (Q8NI35 547-651): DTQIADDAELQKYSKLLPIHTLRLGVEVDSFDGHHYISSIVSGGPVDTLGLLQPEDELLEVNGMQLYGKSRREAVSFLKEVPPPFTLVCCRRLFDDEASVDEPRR

ARHGEF12, Q9NZN5-2 = target: ARHGEF12, Q9NZN5-2
ARHGEF12, Q9NZN5-2, sequence (Q9NZN5 other isoform, or with tags, fused parts or gaps): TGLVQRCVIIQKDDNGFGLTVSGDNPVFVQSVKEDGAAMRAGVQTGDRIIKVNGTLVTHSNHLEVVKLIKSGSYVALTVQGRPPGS

SIPA1L2, Q9P2F8 = target: T7, SIPA1L2, Q9P2F8
T7 sequence (Q9P2F8 945-1036, limits assumed, looked up): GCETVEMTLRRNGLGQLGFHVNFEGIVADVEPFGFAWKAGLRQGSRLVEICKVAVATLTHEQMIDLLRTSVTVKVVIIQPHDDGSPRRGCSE

GIPC2, Q8TF65 = target: GIPC2, Q8TF65
GIPC2, Q8TF65, sequence (Q8TF65 112-203): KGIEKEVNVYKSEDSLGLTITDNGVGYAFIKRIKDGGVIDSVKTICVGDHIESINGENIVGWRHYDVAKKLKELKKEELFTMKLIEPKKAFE

PDLIM1, O00151 = target: PDLIM1, O00151
PDLIM1, O00151, sequence (O00151 1-87): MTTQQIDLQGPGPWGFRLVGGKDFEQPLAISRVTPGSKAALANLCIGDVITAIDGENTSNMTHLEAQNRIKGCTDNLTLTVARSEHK

GRIP1_2, Q9Y3R0 = target: T8, GRIP1_2, Q9Y3R0
T8 sequence (Q9Y3R0 145-248, limits assumed, looked up): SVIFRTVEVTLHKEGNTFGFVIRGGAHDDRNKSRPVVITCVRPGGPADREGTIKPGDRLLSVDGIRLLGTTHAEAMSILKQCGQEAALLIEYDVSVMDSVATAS

MPP2, Q14168 = target: T9, MPP2, Q14168
T9 sequence (Q14168 180-250, limits assumed, looked up): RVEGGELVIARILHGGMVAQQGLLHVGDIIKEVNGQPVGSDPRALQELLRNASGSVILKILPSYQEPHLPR

IL16_4, Q14005 = target: IL16_4, Q14005
IL16_4, Q14005, sequence (Q14005 1229-1329): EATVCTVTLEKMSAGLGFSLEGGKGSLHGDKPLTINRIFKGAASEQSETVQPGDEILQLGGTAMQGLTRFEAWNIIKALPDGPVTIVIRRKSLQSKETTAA

SCRIB_1, Q14160 = target: SCRIB_1, Q14160
SCRIB_1, Q14160, sequence (Q14160 718-814): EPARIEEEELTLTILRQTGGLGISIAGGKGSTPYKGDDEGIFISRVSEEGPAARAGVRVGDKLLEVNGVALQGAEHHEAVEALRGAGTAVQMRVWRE

GRIP2_4, Q9C0E4 = target: GRIP2_4, Q9C0E4
GRIP2_4, Q9C0E4, sequence (Q9C0E4 446-548): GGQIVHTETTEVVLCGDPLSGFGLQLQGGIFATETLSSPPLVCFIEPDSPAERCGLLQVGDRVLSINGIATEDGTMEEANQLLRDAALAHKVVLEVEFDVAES

LNX2_3, Q8N448 = target: T10, LNX2_3, Q8N448
T10 sequence (Q8N448 463-564, limits assumed, looked up): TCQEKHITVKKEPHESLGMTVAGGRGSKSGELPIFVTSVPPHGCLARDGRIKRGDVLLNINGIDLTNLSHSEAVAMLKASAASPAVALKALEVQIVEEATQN

DLG3_3, Q92796 = target: T11, DLG3_3, Q92796
T11 sequence (Q92796 374-475, limits assumed, looked up): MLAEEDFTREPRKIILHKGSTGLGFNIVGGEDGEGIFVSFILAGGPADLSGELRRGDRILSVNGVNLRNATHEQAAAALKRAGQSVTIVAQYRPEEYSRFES

NHERF4_1, Q86UT5-2 = target: NHERF4_1, Q86UT5-2
NHERF4_1, Q86UT5-2, sequence (Q86UT5 other isoform, or with tags, fused parts or gaps): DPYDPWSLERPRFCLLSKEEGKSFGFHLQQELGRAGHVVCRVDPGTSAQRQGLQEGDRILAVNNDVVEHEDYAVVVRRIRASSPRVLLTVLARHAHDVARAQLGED

FRMPD2_2, Q68DX3 = target: FRMPD2_2, Q68DX3
FRMPD2_2, Q68DX3, sequence (Q68DX3 944-1038): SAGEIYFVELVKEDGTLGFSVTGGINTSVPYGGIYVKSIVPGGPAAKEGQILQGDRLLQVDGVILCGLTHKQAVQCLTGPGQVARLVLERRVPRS

[1] = modified: phospho on T at position -1 from the C-terminal residue
[2] = plain residues with an end cap or a label only (N-terminal biotin on a linker: ado-ado)
[3] = modified: phospho on T at position -2 from the C-terminal residue

PTPN3, P26045, sequence (P26045 505-587): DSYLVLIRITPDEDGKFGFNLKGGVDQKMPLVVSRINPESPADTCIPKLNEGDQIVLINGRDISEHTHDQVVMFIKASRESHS

pKd (PTPN3, P26045; [1]): 4.48
pKd (RHPN1, Q8TCX5; [1]): 3.62
pKd (DLG3_2, Q92796; [1]): 3.89
pKd (NOS1, P29475; [1]): below the threshold
pKd (MPP6, Q9NZW5; [1]): below the threshold
pKd (GRIP2_7, Q9C0E4; [1]): below the threshold
pKd (TJP2_1, Q9UDY2; [1]): below the threshold
pKd (SCRIB_3, Q14160; [1]): 4.61
pKd (SNTG2, Q9NY99; [1]): 4.16
pKd (MPP7, Q5T2T1; [1]): 3.35
pKd (GRIP2_5, Q9C0E4; [1]): below the threshold
pKd (CARD11, Q9BXL7; [1]): below the threshold
pKd (Inadl_4, Q8NI35; [1]): below the threshold
pKd (ARHGEF12, Q9NZN5-2; [1]): 4.87
pKd (SIPA1L2, Q9P2F8; [1]): below the threshold
pKd (GIPC2, Q8TF65; [1]): 3.55
pKd (PDLIM1, O00151; [1]): 4
pKd (GRIP1_2, Q9Y3R0; [1]): below the threshold
pKd (MPP2, Q14168; [1]): below the threshold
pKd (IL16_4, Q14005; [1]): below the threshold
pKd (SCRIB_1, Q14160; [1]): 4.02
pKd (GRIP2_4, Q9C0E4; [1]): below the threshold
pKd (LNX2_3, Q8N448; [1]): below the threshold
pKd (DLG3_3, Q92796; [1]): 3.63
pKd (NHERF4_1, Q86UT5-2; [1]): 4.23
pKd (FRMPD2_2, Q68DX3; [1]): 3.47
Binder: RRVRKLPSTTL [RPS6KA1_-1P, Q15418]

pKd (PTPN3, P26045; [2]): below the threshold
pKd (RHPN1, Q8TCX5; [2]): below the threshold
pKd (DLG3_2, Q92796; [2]): below the threshold
pKd (NOS1, P29475; [2]): 3.93
pKd (MPP6, Q9NZW5; [2]): below the threshold
pKd (GRIP2_7, Q9C0E4; [2]): 4.08
pKd (TJP2_1, Q9UDY2; [2]): below the threshold
pKd (SCRIB_3, Q14160; [2]): below the threshold
pKd (SNTG2, Q9NY99; [2]): below the threshold
pKd (MPP7, Q5T2T1; [2]): below the threshold
pKd (GRIP2_5, Q9C0E4; [2]): below the threshold
pKd (CARD11, Q9BXL7; [2]): 3.63
pKd (Inadl_4, Q8NI35; [2]): below the threshold
pKd (ARHGEF12, Q9NZN5-2; [2]): below the threshold
pKd (SIPA1L2, Q9P2F8; [2]): below the threshold
pKd (GIPC2, Q8TF65; [2]): below the threshold
pKd (PDLIM1, O00151; [2]): below the threshold
pKd (GRIP1_2, Q9Y3R0; [2]): below the threshold
pKd (MPP2, Q14168; [2]): below the threshold
pKd (IL16_4, Q14005; [2]): below the threshold
pKd (SCRIB_1, Q14160; [2]): below the threshold
pKd (GRIP2_4, Q9C0E4; [2]): below the threshold
pKd (LNX2_3, Q8N448; [2]): below the threshold
pKd (DLG3_3, Q92796; [2]): below the threshold
pKd (NHERF4_1, Q86UT5-2; [2]): below the threshold
pKd (FRMPD2_2, Q68DX3; [2]): below the threshold
Binder: GQSVDLVFPV [AKIP1, Q9NQ31]

pKd (PTPN3, P26045; [2]): 4.54
pKd (RHPN1, Q8TCX5; [2]): below the threshold
pKd (DLG3_2, Q92796; [2]): 4.46
pKd (NOS1, P29475; [2]): 3.98
pKd (MPP6, Q9NZW5; [2]): below the threshold
pKd (GRIP2_7, Q9C0E4; [2]): below the threshold
pKd (TJP2_1, Q9UDY2; [2]): 3.97
pKd (SCRIB_3, Q14160; [2]): 4.11
pKd (SNTG2, Q9NY99; [2]): below the threshold
pKd (MPP7, Q5T2T1; [2]): below the threshold
pKd (GRIP2_5, Q9C0E4; [2]): below the threshold
pKd (CARD11, Q9BXL7; [2]): below the threshold
pKd (Inadl_4, Q8NI35; [2]): below the threshold
pKd (ARHGEF12, Q9NZN5-2; [2]): 3.86
pKd (SIPA1L2, Q9P2F8; [2]): below the threshold
pKd (GIPC2, Q8TF65; [2]): below the threshold
pKd (PDLIM1, O00151; [2]): below the threshold
pKd (GRIP1_2, Q9Y3R0; [2]): below the threshold
pKd (MPP2, Q14168; [2]): below the threshold
pKd (IL16_4, Q14005; [2]): below the threshold
pKd (SCRIB_1, Q14160; [2]): 3.56
pKd (GRIP2_4, Q9C0E4; [2]): below the threshold
pKd (LNX2_3, Q8N448; [2]): below the threshold
pKd (DLG3_3, Q92796; [2]): 4.77
pKd (NHERF4_1, Q86UT5-2; [2]): below the threshold
pKd (FRMPD2_2, Q68DX3; [2]): 3.55
Binder: SMLNRRTTPV [CACNG4, Q9UBN1]

pKd (PTPN3, P26045; [2]): below the threshold
pKd (RHPN1, Q8TCX5; [2]): below the threshold
pKd (DLG3_2, Q92796; [2]): 4.16
pKd (NOS1, P29475; [2]): below the threshold
pKd (MPP6, Q9NZW5; [2]): below the threshold
pKd (GRIP2_7, Q9C0E4; [2]): below the threshold
pKd (TJP2_1, Q9UDY2; [2]): below the threshold
pKd (SCRIB_3, Q14160; [2]): below the threshold
pKd (SNTG2, Q9NY99; [2]): below the threshold
pKd (MPP7, Q5T2T1; [2]): below the threshold
pKd (GRIP2_5, Q9C0E4; [2]): below the threshold
pKd (CARD11, Q9BXL7; [2]): below the threshold
pKd (Inadl_4, Q8NI35; [2]): below the threshold
pKd (ARHGEF12, Q9NZN5-2; [2]): below the threshold
pKd (SIPA1L2, Q9P2F8; [2]): below the threshold
pKd (GIPC2, Q8TF65; [2]): below the threshold
pKd (PDLIM1, O00151; [2]): below the threshold
pKd (GRIP1_2, Q9Y3R0; [2]): below the threshold
pKd (MPP2, Q14168; [2]): below the threshold
pKd (IL16_4, Q14005; [2]): below the threshold
pKd (SCRIB_1, Q14160; [2]): below the threshold
pKd (GRIP2_4, Q9C0E4; [2]): below the threshold
pKd (LNX2_3, Q8N448; [2]): below the threshold
pKd (DLG3_3, Q92796; [2]): below the threshold
pKd (NHERF4_1, Q86UT5-2; [2]): 4.37
pKd (FRMPD2_2, Q68DX3; [2]): below the threshold
Binder: LSEFKAMDSF [CTNNA2, P26232]

pKd (PTPN3, P26045; [3]): below the threshold
pKd (RHPN1, Q8TCX5; [3]): below the threshold
pKd (DLG3_2, Q92796; [3]): below the threshold
pKd (NOS1, P29475; [3]): below the threshold
pKd (MPP6, Q9NZW5; [3]): below the threshold
pKd (GRIP2_7, Q9C0E4; [3]): below the threshold
pKd (TJP2_1, Q9UDY2; [3]): below the threshold
pKd (SCRIB_3, Q14160; [3]): below the threshold
pKd (SNTG2, Q9NY99; [3]): below the threshold
pKd (MPP7, Q5T2T1; [3]): below the threshold
pKd (GRIP2_5, Q9C0E4; [3]): below the threshold
pKd (CARD11, Q9BXL7; [3]): below the threshold
pKd (Inadl_4, Q8NI35; [3]): below the threshold
pKd (ARHGEF12, Q9NZN5-2; [3]): below the threshold
pKd (SIPA1L2, Q9P2F8; [3]): below the threshold
pKd (GIPC2, Q8TF65; [3]): below the threshold
pKd (PDLIM1, O00151; [3]): below the threshold
pKd (GRIP1_2, Q9Y3R0; [3]): 3.52
pKd (MPP2, Q14168; [3]): below the threshold
pKd (IL16_4, Q14005; [3]): below the threshold
pKd (SCRIB_1, Q14160; [3]): below the threshold
pKd (GRIP2_4, Q9C0E4; [3]): below the threshold
pKd (LNX2_3, Q8N448; [3]): below the threshold
pKd (DLG3_3, Q92796; [3]): below the threshold
pKd (NHERF4_1, Q86UT5-2; [3]): 3.69
pKd (FRMPD2_2, Q68DX3; [3]): below the threshold
Binder: RRVRKLPSTTL [RPS6KA1_-2P, Q15418]
